For orientation: EC50 means the concentration at which the effect is half-maximal. Lower therefore signals greater potency.

Three molecules from publication PMC8826447 (Nature Communications, 2022) can be followed below.

Ends that are not written are not given here. * marks the point of attachment. FITC = O=C1OC2(c3ccc(O)cc3Oc3cc(O)ccc32)c2ccc(NC(=S)*)cc21; βAla = NCCC(=O)O

Series [1] has as its target T1, ASF1a-NT domain (ASF1a residues 1–155) (human, UniProt Q9Y294 1-155).
T1 construct: anti-silencing factor 1a (ASF1a), human, N-terminal immunoglobulin-like domain, residues 1-155; Cloned into pGEX4T-1 as an N-terminal GST fusion and eluted with glutathione; No cleavage step is described; the structures are described with ASF1a residues only (151-155 residues per chain); also called ASF1a 1–155; ASF1-NT; source: E. coli BL21 (DE3) Rosetta 2, purified (glutathione-Sepharose, SEC)
Put plainly: fluorescence polarisation; competition: 63 nM ASF1a 1–155 with 5 nM FITC tracer peptide and rising unlabeled peptide (15.6 nM to 256 μM for the TLK2 peptide); 50 mM Tris pH 8.0, 100 mM NaCl, 10 mM MgCl2, 1.2 mM DTT, 0.012% Brij-35, 0.2 mg/ml BSA; 295 K. Conditions: both partners purified. (In general: Polarisation of emitted light reports the rotation of a fluorescent probe.)

In series [2] the target is T1, ASF1a-NT domain (ASF1a residues 1–155). In words: differential scanning fluorimetry; melting temperature of ASF1a 1–155 with or without 160 μM TLK2 peptide; 20 mM HEPES, 250 mM NaCl, 0.1 mM TCEP, pH 7.5; SYPRO orange; ramp 4 to 95 °C. The conditions noted are these: both partners purified. On the technique in general: Differential scanning fluorimetry follows unfolding on heating by fluorescence.

T1 sequence (Q9Y294 1-155): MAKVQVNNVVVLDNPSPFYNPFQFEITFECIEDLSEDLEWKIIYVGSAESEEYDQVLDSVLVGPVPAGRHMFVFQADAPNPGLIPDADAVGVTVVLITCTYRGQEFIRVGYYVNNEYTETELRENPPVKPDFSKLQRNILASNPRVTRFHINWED

B1: fluorescein-labeled TLK2 tracer peptide (FITC-βAla-LHSLDPRRQELLEARFTG) (peptide)
peptide: {FITC-βAla}-LHSLDPRRQELLEARFTG
notes: TLK2, human, N-terminal stretch; also called fluorescently labeled TLK2 peptide; TLK2 fluorescent peptide; source: synthetic peptide (Tufts University Core Facility, purified by HPLC)
B1: the binding result in series [1] is given as “binds”.

B2: TLK2 peptide spanning residues 3–23 (peptide)
peptide: EELHSLDPRRQELLEARFTGV
notes: TLK2, human, residues 3-23; also called N-terminal TLK2 peptide; unlabeled TLK2 peptide; source: synthetic peptide (Genscript, >98% purity)
In the case of B2, the “increase of melting temperature (160 μM peptide)” value in series [2] was approximately 5 °C. This molecule had an EC50 in series [1] of 2.2 µM.

B3: histone H3.1 peptide (ASF1-binding fragment) (peptide)
peptide: TIMPKDIQLARRIRGERA
notes: also called Histone H3 peptide; source: synthetic peptide (Genscript, >98% purity)
Turning to B3, the binding result in series [1] was “binds”.
